Test results published in paper PMC2424174 (2008).
Where no end group is shown, it is not given here. Ahx = NCCCCCC(=O)O

Legend:
[1] = target: Nucleolin (cell surface, HUVECs) (Homo sapiens, UniProt P19338); assay: iodinated HB-19 cell binding displaced by unlabeled HB-19
[2] = target: Nucleolin (cell surface, MDA-MB-231 cells) (Homo sapiens, UniProt P19338); assay: as above
Chain of Nucleolin (cell surface, MDA-MB-231 cells) (P19338 2-710): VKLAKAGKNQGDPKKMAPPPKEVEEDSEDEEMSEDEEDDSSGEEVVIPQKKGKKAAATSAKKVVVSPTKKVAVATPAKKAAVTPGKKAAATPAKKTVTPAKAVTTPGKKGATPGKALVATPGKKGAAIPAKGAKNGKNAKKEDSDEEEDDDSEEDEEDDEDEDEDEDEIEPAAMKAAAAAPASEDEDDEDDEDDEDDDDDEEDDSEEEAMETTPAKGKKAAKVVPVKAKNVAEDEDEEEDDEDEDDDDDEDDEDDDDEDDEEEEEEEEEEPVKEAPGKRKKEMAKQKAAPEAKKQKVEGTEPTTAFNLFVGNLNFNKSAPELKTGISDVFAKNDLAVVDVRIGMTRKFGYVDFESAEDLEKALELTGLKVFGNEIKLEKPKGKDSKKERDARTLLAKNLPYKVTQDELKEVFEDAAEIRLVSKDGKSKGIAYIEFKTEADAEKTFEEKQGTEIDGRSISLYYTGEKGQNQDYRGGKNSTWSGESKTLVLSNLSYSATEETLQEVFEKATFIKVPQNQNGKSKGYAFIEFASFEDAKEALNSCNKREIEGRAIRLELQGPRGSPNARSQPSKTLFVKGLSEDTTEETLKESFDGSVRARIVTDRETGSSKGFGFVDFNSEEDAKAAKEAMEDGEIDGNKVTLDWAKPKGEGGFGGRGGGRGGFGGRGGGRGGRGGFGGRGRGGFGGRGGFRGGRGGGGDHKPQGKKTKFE

Chain of Nucleolin (cell surface, HUVECs) (P19338 2-710): as above

Kd [1]: 825 nM
Kd [2]: 312 nM
B1: HB-19 pseudopeptide (peptide)
chain: KKKGPKEK-{Ahx-NH2}
modifications: also: pentavalent Lys-psi(CH2N)-Pro-Arg on template, attachment places not given here, reduced psi(CH2N) bond Lys-Pro
